One molecule from US20100093076A1, “SOLUBLE IL-27 RECEPTOR” (priority 2006, published 2010) can be followed below.

The target in one assay is T1, muIL-27 (Mus musculus, UniProt O35228+Q8K3I6).
T1 construct: purchased R&D Systems
T1 sequence (Q8K3I6 29-234): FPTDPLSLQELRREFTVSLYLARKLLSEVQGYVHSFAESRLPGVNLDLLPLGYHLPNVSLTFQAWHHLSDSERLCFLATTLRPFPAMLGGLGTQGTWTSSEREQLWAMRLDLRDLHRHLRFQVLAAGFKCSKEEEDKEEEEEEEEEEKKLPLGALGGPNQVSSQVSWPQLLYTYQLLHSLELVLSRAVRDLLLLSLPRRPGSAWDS
T1 sequence (O35228 19-228): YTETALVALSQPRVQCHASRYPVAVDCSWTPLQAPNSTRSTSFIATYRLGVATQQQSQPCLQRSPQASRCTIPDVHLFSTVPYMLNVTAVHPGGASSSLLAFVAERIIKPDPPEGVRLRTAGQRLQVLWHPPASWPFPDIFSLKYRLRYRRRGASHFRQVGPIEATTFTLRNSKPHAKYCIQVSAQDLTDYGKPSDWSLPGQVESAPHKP
The assay can be described thus: Phospho-STAT3 (BIO-PLEX) neutralization of IL-27 by soluble receptors, total human PBMCs. Type of assay: cell-based. Particulars: ligand muIL-27 at EC90 (2 nM). From the text:
(§1) Whole mouse spleens were harvested from C57 B1/6 mice and washed two times with 1×PBS before being plated out at 2×10^5 cells/well in assay media (RPMI 1640 plus 10% fetal bovine serum) in 96-well, round-bottom tissue culture plates. Total human PBMC (peripheral blood mononuclear cells) were thawed from a frozen vial collected from a leukapherisis donation and washed two times with 1×PBS before being plated out at 10^6 cells/well in assay media in 96-well, round-bottom tissue culture plates. […] Following pre-incubation, treatments were added to the plates containing the cells and incubated together at 37° C. for 15 minutes.
(§2) Following incubation, cells were washed with ice-cold wash buffer (BIO-PLEX Cell Lysis Kit, BIO-RAD Laboratories, Hercules, Calif.) and put on ice to stop the reaction according to manufacturer's instructions. […]
(§3) Capture beads (BIO-PLEX Phospho-Stat3 Assay, BIO-RAD Laboratories) were combined with 50 μL of 1:1 diluted lysates and added to a 96-well filter plate according to manufacture's instructions (BIO-PLEX Phosphoprotein Detection Kit, BIO-RAD Laboratories). […] After the final wash, beads were resuspended in 125 μL/well of bead suspension buffer, shaken for 30 seconds, and read on an array reader (BIO-PLEX, BIO-RAD Laboratories) according to the manufacture's instructions. Data were analyzed using analytical software (BIO-PLEX MANAGER 3.0, BIO-RAD Laboratories). […]

Another assay concerns the target T2, huIL-27 (Homo sapiens, UniProt Q14213+Q8NEV9).
T2 construct: purchased R&D Systems
T2 sequence (Q8NEV9 29-243): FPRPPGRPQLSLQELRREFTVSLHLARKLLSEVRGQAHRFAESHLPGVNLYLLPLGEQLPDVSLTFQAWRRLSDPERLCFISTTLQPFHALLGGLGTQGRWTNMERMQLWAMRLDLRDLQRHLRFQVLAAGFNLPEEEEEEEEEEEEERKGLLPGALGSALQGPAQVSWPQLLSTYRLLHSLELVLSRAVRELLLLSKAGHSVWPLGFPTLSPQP
T2 sequence (Q14213 21-229): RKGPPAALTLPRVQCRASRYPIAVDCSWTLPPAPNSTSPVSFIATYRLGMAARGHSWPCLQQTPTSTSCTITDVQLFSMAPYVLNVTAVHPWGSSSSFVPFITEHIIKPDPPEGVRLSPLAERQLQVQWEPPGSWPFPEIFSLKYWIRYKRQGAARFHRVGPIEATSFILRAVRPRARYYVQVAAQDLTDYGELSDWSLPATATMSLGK
The description is as above. It is filed as cell-based. Conditions: ligand huIL-27 at EC90 (2 nM).
Source text: as §1, §2, §3

B1: IL-27RAm(mFc1): Extracellular domain of mouse IL27RA fused to a wild type BALB/c mouse gamma2a constant region Fc tag (protein)
chain: MNRLERVALARLETPRLEGLLELELESLEMSLELELEGTRPRHGSPRGPRLEQCYSVGPRLEGILENCSWGLPRLEGDLEGLTPRPRVLEYHQSQKYHPRNRVWGLVKVPRSKQSWVTIPRRGLQFTMADKLELEIWGTQKGRPRLEWSSVSVASNLEGLTQMKPRDTPRQIFSQVASPISGLGLATLEGLATVQWAPRPRVWPRPRQKALETCQFRYKGLCQAGLAWTRLEGLPRQLEKTDGLETPRVGLMQNLEGLPRGTCYQVSGRCQVGLNGYPRWGGLWSSPRLESFQTPRFLEDPRGLDVWVSGTVCGLTSGKRAALELEVWKDPRRPRCVQVTYTVWFGAGDITTTQGLGLVPRCCKSPRVPRAWMGLWAVVSPRGNSTSWVPRPRTNLESLEVCLEAPRGLSAPRCDVGVSSADGSPRGIKVTWKQGTARGSPRLEGLYVVASPWAQDGDSLEDKLENWTRLEPRPRGNLESTLELEPRGGLFKGGVPRYRITVTAVYSGGLEAAAPRSVWGFRGLGLLEVPRLEAGPRAVWRLEPRDDPRPRGTPRVVALAWGGLVPRRHQLERGQATHYTFCIQSRGLESTVCRNVSSQTQTATLEPRNLEHSGSFKLEWVTVSTVALAGQGPRPRGPRDLESLEHLEPRDNRIRWKALEPRWFLESLEWGLELELEMGCGLESLEASTRCLEQARCLEHWRHKLELEPRQWIWGLRVPRDPRANSNSGQPRYIKGLVSLEPRQPRPRKDGPRILEGLVGLGLVGLLEQPRVVGLSPRKASAPRIYSGYGLKHFLEPRTPRGLGLLEGLELEV
modifications: left off: a dimerising Fc or GST
notes: Extracellular domain of mouse IL27RA fused to a wild type BALB/c mouse gamma2a constant region Fc tag
In the case of B1, the IC50 in the assay with muIL-27 came out at 4.83 nM; in the assay with huIL-27, 1370 nM.

As usually defined, the IC50 is the midpoint of a concentration-inhibition curve.
